Experiments:
[1] = target: T1, purified recombinant MPV vCCI (monkeypox virus viral CC-chemokine inhibitor, product of MPV ORF-[cha (monkeypox virus, UniProt P0DTM9 17-246)); test: mobility shift assay
[2] = target: T1, purified recombinant MPV vCCI …; test: native PAGE mobility shift (1:1 molar ratio); co-immunoprecipitation

| Binder | binding result [1] | binding result [2] |
| --- | --- | --- |
| mouse MIP-1alpha (ligand) APYGADTPTACCFSYSRKIPRQFIVDYFETSSLCSQPGVIFLTKRNRQICADSKETWVQEYITDLELNA | binds |  |
| purified recombinant 6x-histidine tagged rhesus MIP-1alpha (ligand, also called rhMIP-1α; rhMIP1α) ADTPTSCCFSYISRQIPQNFIADYFETNSQCSKPGVIFLTKRGRQVCADPSKEWVQKYVSDLELSAHHHHHH |  | binds |
| mouse MCP-1 (ligand) not shown | binds |  |

Reference: US20090291895A1 (published 2009)
